Paper PMC5892705

Target: human vasopressin V2 receptor (human), P30518

UYIQNUPLG (modifications not checked) [[Se-Se]-OT-OH]
cAMP production, EC50: 109 nM
